From patent US20070196371A1 (ZymoGenetics, published 2007)

T1: human IL-17RC (IL-17RCx1), full length on transfected cells (human, UniProt Q8NAC3 21-791)
T1 sequence: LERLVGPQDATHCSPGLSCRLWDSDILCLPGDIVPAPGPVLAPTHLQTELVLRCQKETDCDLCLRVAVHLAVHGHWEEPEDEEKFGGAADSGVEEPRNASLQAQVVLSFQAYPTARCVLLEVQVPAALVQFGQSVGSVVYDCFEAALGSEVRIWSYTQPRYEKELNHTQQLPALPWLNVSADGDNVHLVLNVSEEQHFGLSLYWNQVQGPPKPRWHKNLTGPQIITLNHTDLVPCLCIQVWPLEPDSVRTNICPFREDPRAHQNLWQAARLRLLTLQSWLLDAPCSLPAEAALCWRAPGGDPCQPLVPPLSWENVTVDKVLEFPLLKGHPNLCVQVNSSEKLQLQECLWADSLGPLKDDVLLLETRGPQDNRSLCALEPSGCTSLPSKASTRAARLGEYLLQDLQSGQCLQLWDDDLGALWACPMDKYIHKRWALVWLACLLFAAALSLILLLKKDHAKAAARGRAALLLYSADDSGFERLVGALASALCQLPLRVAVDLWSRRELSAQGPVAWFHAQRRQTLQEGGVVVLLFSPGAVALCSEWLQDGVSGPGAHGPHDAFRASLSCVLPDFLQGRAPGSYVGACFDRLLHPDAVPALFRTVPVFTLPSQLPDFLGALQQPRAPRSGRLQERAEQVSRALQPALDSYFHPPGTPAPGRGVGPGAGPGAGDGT

T2: mouse IL-17RCx1, on transfected cells (mouse, UniProt Q8K4C2 22-698)
T2 construct: also called murine IL-17RCx1; IL-17RCx1 (mouse)
T2 sequence: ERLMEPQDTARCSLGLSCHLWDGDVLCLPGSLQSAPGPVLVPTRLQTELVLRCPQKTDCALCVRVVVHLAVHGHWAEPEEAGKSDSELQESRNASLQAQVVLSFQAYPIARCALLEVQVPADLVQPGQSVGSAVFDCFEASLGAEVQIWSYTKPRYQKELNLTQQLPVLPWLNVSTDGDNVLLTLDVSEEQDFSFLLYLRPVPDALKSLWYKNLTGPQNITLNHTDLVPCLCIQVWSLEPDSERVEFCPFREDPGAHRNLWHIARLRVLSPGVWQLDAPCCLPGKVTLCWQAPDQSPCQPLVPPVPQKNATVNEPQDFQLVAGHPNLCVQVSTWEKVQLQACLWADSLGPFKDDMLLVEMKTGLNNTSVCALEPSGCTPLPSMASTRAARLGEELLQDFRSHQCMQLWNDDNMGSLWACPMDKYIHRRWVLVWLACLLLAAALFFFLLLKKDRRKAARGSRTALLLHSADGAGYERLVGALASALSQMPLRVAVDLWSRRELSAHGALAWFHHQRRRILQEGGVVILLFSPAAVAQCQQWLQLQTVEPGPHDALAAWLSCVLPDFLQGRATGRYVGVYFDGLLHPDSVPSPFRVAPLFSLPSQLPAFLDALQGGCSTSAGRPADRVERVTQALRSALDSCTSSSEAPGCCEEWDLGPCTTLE

T3: human IL-17RCx4, on transfected 293T cells (human, UniProt Q8NAC3 21-791)
T3 construct: Splice variant that includes exons 7, 8 and 12
T3 sequence: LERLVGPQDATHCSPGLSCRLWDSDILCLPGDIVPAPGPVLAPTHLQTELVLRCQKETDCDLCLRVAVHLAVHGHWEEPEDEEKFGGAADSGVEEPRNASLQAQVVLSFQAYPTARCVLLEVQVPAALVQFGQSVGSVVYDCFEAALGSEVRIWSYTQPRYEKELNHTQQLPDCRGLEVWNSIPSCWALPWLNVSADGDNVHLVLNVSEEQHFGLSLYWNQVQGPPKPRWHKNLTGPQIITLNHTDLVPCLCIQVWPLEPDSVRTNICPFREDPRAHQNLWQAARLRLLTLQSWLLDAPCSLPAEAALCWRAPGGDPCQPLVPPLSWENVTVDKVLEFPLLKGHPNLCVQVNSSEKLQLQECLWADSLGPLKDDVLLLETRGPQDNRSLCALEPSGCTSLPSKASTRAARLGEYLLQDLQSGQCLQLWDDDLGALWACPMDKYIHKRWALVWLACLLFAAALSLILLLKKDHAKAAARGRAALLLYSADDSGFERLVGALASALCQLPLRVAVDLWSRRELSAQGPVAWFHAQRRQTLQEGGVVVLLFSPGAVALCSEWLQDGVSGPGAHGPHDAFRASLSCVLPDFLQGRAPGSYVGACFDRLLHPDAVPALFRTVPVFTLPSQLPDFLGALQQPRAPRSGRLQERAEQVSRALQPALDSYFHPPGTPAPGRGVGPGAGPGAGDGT

T4: human IL-17 receptor (IL-17R), on transfected cells (human, UniProt Q96F46 33-320)
T4 sequence: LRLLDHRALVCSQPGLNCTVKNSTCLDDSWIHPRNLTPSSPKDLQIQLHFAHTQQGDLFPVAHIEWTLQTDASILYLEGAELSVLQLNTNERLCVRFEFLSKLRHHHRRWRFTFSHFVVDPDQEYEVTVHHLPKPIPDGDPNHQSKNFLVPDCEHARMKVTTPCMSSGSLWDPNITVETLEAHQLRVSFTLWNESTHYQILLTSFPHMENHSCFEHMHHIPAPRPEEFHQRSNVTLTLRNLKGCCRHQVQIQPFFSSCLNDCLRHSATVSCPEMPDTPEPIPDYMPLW

B1: mouse IL-17A (ligand)
chain: AAIIPQSSACPNTEAKDFLQNVKVNLKVFNSLGAKVSSRRPSDYLNRSTSPWTLHRNEDPDRYPSVIWEAQCRHQRCVNAEGKLDHHMNSVLIQQEILVLKREPESCPFTFRVEKMLVGVGCTCVASIVRQAA
modifications: biotinylated in Example 31
notes: also called murine IL-17A; mIL-17A
B2: human IL-17F (ligand)
chain: RKIPKVGHTFFQKPESCPPVPGGSMKLDIGIINENQRVSMSRNIESRSTSPWNYTVTWDPNRYPSEVVQAQCRNLGCINAQGKEDISMNSVPIQQETLVVRRKHQGCSVSFQLEKVLVTVGCTCVTPVIHHVQ
modifications: biotinylated (flow cytometry) or 125I-radiolabeled by the iodobead method (radioligand assays); unlabeled as cold competitor; expressed from cDNA in COS cells in the secretion trap
notes: also called huIL-17F; hIL-17F
B3: mouse IL-17F (ligand)
chain: RKNPKAGVPALQKAGNCPPLEDNTVRVDIRIFNQNQGISVPREFQNRSSSPWDYNITRDPHRFPSEIAEAQCRHSGCINAQGQEDSTMNSVAIQQEILVLRREPQGCSNSFRLEKMLLKVGCTCVKPIVHQAA
modifications: biotinylated in Example 31
notes: also called murine IL-17F; MuIL-17F

Columns and labels:
[1] = target: T1, human IL-17RC (IL-17RCx1), full length …; assay: cell-based or functional assay
[2] = target: T2, mouse IL-17RCx1, on transfected cells; assay: FACS, biotinylated cytokine on transfected cells; (-) = no significant change in fluorescence
[3] = target: T3, human IL-17RCx4, on transfected 293T …; assay: FACS, biotinylated cytokine on transiently transfected 293T cells; (-) = no significant change in fluorescence
From the text: (§1) Those chosen for this analysis also differed in their inclusion or exclusion of exon 7 and exon 12. These variants were designated human IL-17RCx1, IL-17RCx4, IL-17RCx2, and IL-17RCx7 and these are also illustrated in Table 6 below.

[4] = target: T1, human IL-17RC (IL-17RCx1), full length …; assay: as above
From the text: as §1

[5] = target: T4, human IL-17 receptor (IL-17R), on …; assay: cell-based or functional assay
[6] = target: T1, human IL-17RC (IL-17RCx1), full length …; assay: radioligand competition, 100x molar cold competitor, BHK hIL-17RC cells
Protocol: (§2) Cold competitors were added in 100 fold molar excess. […] Wells were incubated on ice for 1-hour followed by two washes with PBS (Invitrogen 20012-027) and one wash with a high salt solution (1.5M NaCL, 50 mM HEPES pH 7.4). Wells were extracted with 500 ul of 0.8M NaOH for 30 min. at room temperature and counts per minute were measured in a gamma counter (Packard Cobra II A5005).

[7] = target: T2, mouse IL-17RCx1, on transfected cells; assay: FACS, biotinylated cytokine on transfected cells; (+) = significant increase in fluorescence
[8] = target: T1, human IL-17RC (IL-17RCx1), full length …; assay: saturation radioligand binding on BHK hIL-17RC cells, experiment 1; high affinity site of two-site fit
Protocol: as §2
(§3) Transfected BHK cells were plated into 24-well dishes as in one. […] Separately, 100 fold molar excess of cold ligand was added at each dilution point. Cells were washed, extracted and counted as in one. Specific counts per minute were plotted against concentration of radiolabeled ligand added by subtracting the 100 fold excess counts from the uncompleted counts at each dilution point. These normalized data were plotted to generate saturation binding curves for each combination of radiolabeled ligand and transfected BHK cells.

[9] = target: T1, human IL-17RC (IL-17RCx1), full length …; assay: saturation radioligand binding on BHK hIL-17RC cells, experiment 2; high affinity site of two-site fit
Protocol: as §2, §3

[10] = target: T1, human IL-17RC (IL-17RCx1), full length …; assay: saturation radioligand binding on BHK hIL-17RC cells, experiment 3; high affinity site of two-site fit
Protocol: as §2, §3

[11] = target: T3, human IL-17RCx4, on transfected 293T …; assay: FACS, biotinylated cytokine on transiently transfected 293T cells; (+) = significant increase in fluorescence

Binder	EC50, ap1/nfkb luciferase in nih3t3/kz142.8/hcytor14x1 pool [1] [ng/mL]	binding result [2]	binding result [3]	binding result [4]	EC50, ap1/nfkb luciferase in hIL-17RCX1 recombinant line [1] [ng/mL]	fold more potent EC50 in the recombinant line vs the parental line [1] [fold]	EC50, ap1/nfkb luciferase in hIL-17RA recombinant line [5] [ng/mL]	fold reduction of 125I IL-17A binding [6] [fold]	fold reduction of 125I IL-17F binding [6] [fold]	binding result [7]	Kd [8] [nM]	Kd [9] [nM]	Kd [10] [nM]	binding result [11]
B1	~4	no binding	no binding	no binding	–	–	–	–	–	–	–	–	–	–
B2	–	–	–	–	0.61	17	12.4	~7	~5	binds	0.05	0.06	0.08	–
B3	–	no binding	–	no binding	–	–	–	–	–	–	–	–	–	binds
